Publication PMC4427171
Read-outs that look alike come from different tables or passages of the source.

How the values were obtained:
[1] = target: PfOPRTase 1–218(Δ37–58)-H6 (Plasmodium falciparum) (UniProt Q8I3Y0); assay: crystal structure; hanging drop, 100 mM ammonium sulfate, 30% PEG 3350, 277 K; protein at 30 mg/ml; space group P212121, eight chains (four catalytic dimers) in the asymmetric unit
[2] = target: PfOPRTase 1–218(Δ37–58)-H6 (Plasmodium falciparum) (UniProt Q8I3Y0); assay: as above; remark: listed apart in the source

PfOPRTase 1–218(Δ37–58)-H6 (from UniProt Q8I3Y0 1-218) (enzyme)
stoichiometry N [1]: 4
stoichiometry N [2]: 2
